Target: CXCR5 (human; form in the assay not stated) (UniProt P32302)
Test: side-by-side comparison; method not stated

B1: Mouse anti-hCXCR5 mAb clone 16D7 (antibody, V domains shown)
VH: QVQLKESGPGLVAPSQSLSITCTVSGFSLIDYGVNWIRQPPGKGLEWLGVIWGDGTTYYNSALKSRLSIRKDNSQSQVFLKMNSLQTDDTAMYYCARIVYWGQGTLVTVSA
VL: DIVMTQAAPSVAVTPRESVSISCRSSKSLLHSSGKTYLYWFLQRPGQSPQLLIYRMSNLASGVPDRFSGSGSGTAFTLRISRVEAEDVGVYYCMQHLEYPYTFGGGTKLEIK
  fold higher affinity than the commercial antibodies: 10 fold
  off rate, times better than the other antibodies: 100 times

Source: patent US20130251714A1
